Patent publication US8771644B2, “Imaging probes” (Sanofi, priority 2007, dated 2014)

Assays:
Type in all cases: biochemical
[1] = system: CN(C)c1ccc2c(c1)Oc1cc(N(C)C)ccc1C21OC(=O)c2cc(C(=O)NCC[C@H](NC(=O)[C@H](CC3CCCCC3)NC(=O)N3CCOCC3)C(=O)NCCNC(=O)c3ccc(-c4c5ccc(=O)cc-5oc5cc(O)ccc45)c(C(=O)O)c3)ccc21; experiment: in vitro activity assay (fluorescence, substrate cleavage) with Cath B; details: other: Cath B; measurement performed at pH 5.5; pH 5.5; 37.0 °C
Method: (§1) […] The substrates were solved in DMSO and added to enzyme solution with a final concentration of 50 μM.
(§2) Fluorescence was measured with an Tecan SAFIRE II spectrometer (excitation wavelength: 336 nm; emission wavelength: 490 nm; excitation band: 10.0 nm; emission band: 10.0 nm; amplification (manual): 90).

[2] = system: CN(C)c1ccc(/N=N/c2ccc(C(=O)NCCCC[C@H](NC(=O)[C@H](CCC(=O)NCCNc3cccc4c(S(=O)(=O)O)cccc34)NC(=O)[C@H](CC3CCCCC3)NC(=O)N3CCOCC3)C(=O)O)cc2)cc1; experiment: as above; details: other: Cath B; measurement performed at pH 7.5; pH 7.5; 37.0 °C
Method: as §1, §2

[3] = system: CN(C)c1ccc2c(c1)Oc1cc(N(C)C)ccc1C21OC(=O)c2cc(C(=O)NCC[C@H](NC(=O)[C@H](CC3CCCCC3)NC(=O)N3CCOCC3)C(=O)NCCNC(=O)c3ccc(-c4c5ccc(=O)cc-5oc5cc(O)ccc45)c(C(=O)O)c3)ccc21; experiment: in vitro activity assay (fluorescence, substrate cleavage) with Cath L; details: other: Cath L; measurement performed at pH 5.5; pH 5.5; 37.0 °C
Method: as §1, §2

[4] = system: CN(C)c1ccc(/N=N/c2ccc(C(=O)NCCCC[C@H](NC(=O)[C@H](CCC(=O)NCCNc3cccc4c(S(=O)(=O)O)cccc34)NC(=O)[C@H](CC3CCCCC3)NC(=O)N3CCOCC3)C(=O)O)cc2)cc1; experiment: as above; details: other: Cath L; measurement performed at pH 7.5; pH 7.5; 37.0 °C
Method: as §1, §2

Sequence of Cath L (Homo sapiens) (chain, as listed by the source): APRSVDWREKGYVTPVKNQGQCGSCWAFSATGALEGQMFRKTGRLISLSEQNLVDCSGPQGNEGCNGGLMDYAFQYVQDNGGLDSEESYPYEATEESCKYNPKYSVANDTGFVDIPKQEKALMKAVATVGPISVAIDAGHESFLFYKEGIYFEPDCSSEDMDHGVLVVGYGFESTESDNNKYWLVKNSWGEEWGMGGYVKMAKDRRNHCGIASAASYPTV

Substance	Km [1]	Vmax [1]	kcat [1]	Km [2]	Vmax [2]	kcat/Km [2]	Km [3]	Vmax [3]	kcat [3]	Km [4]	Vmax [4]	kcat [4]	kcat/Km [4]
Cath B (Homo sapiens)	0.88 mM	0.156 µmol/min	0.25 s⁻¹	0.12 mM	0.006 µmol/min	250 M⁻¹ s⁻¹							
Cath L (Homo sapiens)							7.1 mM	0.582 µmol/min	3.01 s⁻¹	8.3 mM	0.27 µmol/min	1.26 s⁻¹	152 M⁻¹ s⁻¹
